Measured values from article PMC4222845.

Legend:
[1] = target: CopNΔ84 (C. pneumoniae AR39); assay: SEC; Superdex 200 10/300 GL, 10 mM Tris-HCl pH 7.5, 150 mM NaCl, 0.5 mL/min, 4°C; equivalent molar concentrations, incubated 15 minutes; molecular weight from BioRad gel-filtration standards
[2] = target: Scc3-CopNΔ84 complex (C. pneumoniae AR39); assay: ITC
[3] = target: Scc3 (C. pneumoniae AR39); assay: ITC

| Substance | stoichiometry N [1] | Kd [2] | Kd [3] |
| --- | --- | --- | --- |
| Scc3 (natural protein) | 1 |  |  |
| synthetic peptide (CopB residues 163–173) |  | 49 µM | 79 µM |
